Series [1] concerns the target T1, chloroplast ATP synthase (CF1FO) γ subunit (Spinacia oleracea, UniProt P05435 42-364, disulfide γCys240-γCys246 in the oxidized (IBZ) sample; free cysteines in the reduced (DTT) sample).
T1 construct: ATP synthase gamma chain, chloroplastic, Spinacia oleracea; endogenous subunit of the purified complex; One molecule for both redox states; also called central shaft γ subunit; source: purified from spinach leaves as part of the CF1FO complex (ammonium sulfate, sucrose gradient, anion exchange, SEC)
T1 sequence (looked up): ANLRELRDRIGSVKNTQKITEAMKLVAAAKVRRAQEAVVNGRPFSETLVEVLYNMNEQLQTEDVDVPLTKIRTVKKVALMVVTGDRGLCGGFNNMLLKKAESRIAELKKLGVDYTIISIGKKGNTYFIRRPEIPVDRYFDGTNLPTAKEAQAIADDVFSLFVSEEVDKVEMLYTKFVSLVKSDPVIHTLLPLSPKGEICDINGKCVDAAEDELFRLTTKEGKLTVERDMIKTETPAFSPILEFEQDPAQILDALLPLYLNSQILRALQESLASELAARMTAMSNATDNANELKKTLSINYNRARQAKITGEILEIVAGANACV
Kind of series: cryo-EM structure. Conditions: both partners purified.

Series [2] concerns the molecule itself. Description: cryo-EM structure.

B1: chloroplast ATP synthase (CF1FO) ε subunit (natural protein, Spinacia oleracea, UniProt P00833 1-134, looked up)
chain: MTLNLCVLTPNRSIWNSEVKEIILSTNSGQIGVLPNHAPTATAVDIGILRIRLNDQWLTLALMGGFARIGNNEITILVNDAERGSDIDPQEAQQTLEIAEANLRKAEGKRQKIEANLALRRARTRVEASNTISS
notes: ATP synthase epsilon chain, chloroplastic, Spinacia oleracea; endogenous subunit of the purified complex; source: purified from spinach leaves as part of the CF1FO complex (ammonium sulfate, sucrose gradient, anion exchange, SEC)
Turning to B1, the binding result in series [1] is reported as “binds”.

B2: chloroplast ATP synthase (CF1FO) subunit c (c14 ring) (natural protein, Spinacia oleracea, UniProt P69447 1-81, looked up)
chain: MNPLIAAASVIAAGLAVGLASIGPGVGQGTAAGQAVEGIARQPEAEGKIRGTLLLSLAFMEALTIYGLVVALALLFANPFV
notes: ATP synthase subunit c, chloroplastic, Spinacia oleracea; endogenous subunit of the purified complex; also called c ring; c-ring rotor; source: purified from spinach leaves as part of the CF1FO complex (ammonium sulfate, sucrose gradient, anion exchange, SEC); copies: 14
In general, stoichiometry N refers to a count of units in the complex or per binding partner. Take B2: in series [2], the “stoichiometry N” value turned out to be 14.

For the origin of these results see paper PMC7468127, “Structural basis of redox modulation on chloroplast ATP synthase” (Communications Biology, 2020).
